Substitutions are numbered along the chain they refer to. Numbers in names are those of the source.
Columns and labels:
[1] = molecular target: T1, human Izumo1_(22-254), wild type (human, UniProt Q8IYV9-1 22-254); test: BLI
E71K Izumo1_(22-254) = E71K Izumo1_(22-254) (human, UniProt Q8IYV9-1 22-254, E71K); test: BLI
H157A Izumo1_(22-254) = H157A Izumo1_(22-254) (human, UniProt Q8IYV9-1 22-254, H157A); test: BLI
E71A Izumo1_(22-254) = E71A Izumo1_(22-254) (human, UniProt Q8IYV9-1 22-254, E71A); test: BLI
Q130A Izumo1_(22-254) = Q130A Izumo1_(22-254) (human, UniProt Q8IYV9-1 22-254, Q130A); test: BLI
R160E Izumo1_(22-254) = R160E Izumo1_(22-254) (human, UniProt Q8IYV9-1 22-254, R160E); test: BLI
D72A Izumo1_(22-254) = D72A Izumo1_(22-254) (human, UniProt Q8IYV9-1 22-254, D72A); test: BLI
R160A Izumo1_(22-254) = R160A Izumo1_(22-254) (human, UniProt Q8IYV9-1 22-254, R160A); test: BLI
[2] = molecular target: T1, human Izumo1_(22-254), wild type; test: SPR

T1 sequence (Q8IYV9 22-254): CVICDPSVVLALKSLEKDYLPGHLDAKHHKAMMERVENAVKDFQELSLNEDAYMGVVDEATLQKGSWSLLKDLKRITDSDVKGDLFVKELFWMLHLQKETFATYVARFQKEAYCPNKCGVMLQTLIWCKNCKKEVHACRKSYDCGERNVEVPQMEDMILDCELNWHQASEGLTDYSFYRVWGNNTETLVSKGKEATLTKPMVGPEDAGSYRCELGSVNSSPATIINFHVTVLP
Chain of R160E Izumo1_(22-254) (Q8IYV9 22-254 R160E): as the sequence (Q8IYV9 22-254) above, with R139E counted along it
Chain of E71A Izumo1_(22-254) (Q8IYV9 22-254 E71A): as the sequence (Q8IYV9 22-254) above, with E50A counted along it
Chain of R160A Izumo1_(22-254) (Q8IYV9 22-254 R160A): as the sequence (Q8IYV9 22-254) above, with R139A counted along it
Chain of D72A Izumo1_(22-254) (Q8IYV9 22-254 D72A): as the sequence (Q8IYV9 22-254) above, with D51A counted along it
Chain of H157A Izumo1_(22-254) (Q8IYV9 22-254 H157A): as the sequence (Q8IYV9 22-254) above, with H136A counted along it
Chain of Q130A Izumo1_(22-254) (Q8IYV9 22-254 Q130A): as the sequence (Q8IYV9 22-254) above, with Q109A counted along it
Chain of E71K Izumo1_(22-254) (Q8IYV9 22-254 E71K): as the sequence (Q8IYV9 22-254) above, with E50K counted along it

B1: E45A Juno_(20-228) (domain or fragment, human, UniProt A6ND01-1 20-228, looked up)
chain: GDELLNICMNAKHHKRVPSPEDKLYAECIPWKDNACCTLTTSWEAHLDVSPLYNFSLFHCGLLMPGCRKHFIQAICFYECSPNLGPWIQPVGSLGWEVAPSGQGERVVNVPLCQEDCEEWWEDCRMSYTCKSNWRGGWDWSQGKNRCPKGAQCLPFSHYFPTPADLCEKTWSNSFKASPERRNSGRCLQKWFEPAQGNPNVAVARLFAS
modifications: biotinylated with the EZ link sulfo-NHS-LC-biotinylation kit (BLI)
Kd [1]: 681 nM | koff [1]: 0.0247 s⁻¹ | kon [1]: 37000 M⁻¹ s⁻¹

B2: E45K Juno_(20-228) (domain or fragment, human, UniProt A6ND01-1 20-228, looked up)
chain: B1 chain with A26K
modifications: biotinylated with the EZ link sulfo-NHS-LC-biotinylation kit (in the BLI assay only)
Kd [1]: 2800 nM | koff [1]: 0.0624 s⁻¹ | kon [1]: 23000 M⁻¹ s⁻¹

B3: K163A Juno_(20-228) (domain or fragment, human, UniProt A6ND01-1 20-228, looked up)
chain: B1 chain with A26E, K144A
modifications: biotinylated with the EZ link sulfo-NHS-LC-biotinylation kit (BLI)
Kd [1]: 97 nM | koff [1]: 0.0133 s⁻¹ | kon [1]: 138000 M⁻¹ s⁻¹

B4: K163E Juno_(20-228) (domain or fragment, human, UniProt A6ND01-1 20-228, looked up)
chain: B1 chain with A26E, K144E
modifications: biotinylated with the EZ link sulfo-NHS-LC-biotinylation kit (in the BLI assay only)
Kd [1]: 134 nM | koff [1]: 0.0242 s⁻¹ | kon [1]: 181000 M⁻¹ s⁻¹

B5: L81A Juno_(20-228) (domain or fragment, human, UniProt A6ND01-1 20-228, looked up)
chain: B1 chain with A26E, L62A
modifications: biotinylated with the EZ link sulfo-NHS-LC-biotinylation kit (BLI)
Kd [1]: 9100 nM | koff [1]: 0.349 s⁻¹ | kon [1]: 40000 M⁻¹ s⁻¹

B6: W62A Juno_(20-228) (domain or fragment, human, UniProt A6ND01-1 20-228, looked up)
chain: B1 chain with A26E, W43A
modifications: biotinylated with the EZ link sulfo-NHS-LC-biotinylation kit (BLI)
Kd [1]: 361 nM | koff [1]: 0.0412 s⁻¹ | kon [1]: 114000 M⁻¹ s⁻¹

B7: human Juno_(20-228), wild type (domain or fragment, UniProt A6ND01-1 20-228, looked up)
chain: B1 chain with A26E
modifications: biotinylated with the EZ link sulfo-NHS-LC-biotinylation kit (in the BLI assay only)
Kd (E71K Izumo1_(22-254)): 119 nM | koff (E71K Izumo1_(22-254)): 0.0195 s⁻¹ | kon (E71K Izumo1_(22-254)): 165000 M⁻¹ s⁻¹ | Kd (H157A Izumo1_(22-254)): 1800 nM | koff (H157A Izumo1_(22-254)): 0.079 s⁻¹ | kon (H157A Izumo1_(22-254)): 51000 M⁻¹ s⁻¹ | Kd (E71A Izumo1_(22-254)): 96 nM | koff (E71A Izumo1_(22-254)): 0.0137 s⁻¹ | kon (E71A Izumo1_(22-254)): 143000 M⁻¹ s⁻¹ | Kd [1]: 59 nM | koff [1]: 0.0067 s⁻¹ | kon [1]: 115000 M⁻¹ s⁻¹ | Kd (Q130A Izumo1_(22-254)): 56 nM | koff (Q130A Izumo1_(22-254)): 0.0068 s⁻¹ | kon (Q130A Izumo1_(22-254)): 127000 M⁻¹ s⁻¹ | Kd (R160E Izumo1_(22-254)): 2200 nM | koff (R160E Izumo1_(22-254)): 0.0512 s⁻¹ | kon (R160E Izumo1_(22-254)): 32000 M⁻¹ s⁻¹ | Kd (D72A Izumo1_(22-254)): 71 nM | koff (D72A Izumo1_(22-254)): 0.0126 s⁻¹ | kon (D72A Izumo1_(22-254)): 178000 M⁻¹ s⁻¹ | Kd (R160A Izumo1_(22-254)): 730 nM | koff (R160A Izumo1_(22-254)): 0.0563 s⁻¹ | kon (R160A Izumo1_(22-254)): 78000 M⁻¹ s⁻¹ | Kd [2]: 48 nM | koff [2]: 0.0194 s⁻¹ | kon [2]: 420000 M⁻¹ s⁻¹
